Target: T1, insoluble type I collagen fibers (UniProt P02453 162-1217; P02465 80-1117)
T1 construct: type I collagen, alpha-1(I) chain; type I collagen, alpha-2(I) chain; Triple-helical, insoluble fibres; also called insoluble collagen fibers; native collagen; source: bought: Sigma‐Aldrich
Experiment: collagen-binding assay with Scatchard analysis; 2.5 mg insoluble type I collagen fibers in 50 μL binding buffer (50 mM Tris/HCl, 0.2 M NaCl, 5 mM CaCl2, pH 7.5) with 0.1–2.0 mg/mL C‐terminal segment and 0.05 mg/mL BSA; unbound protein in the filtrate by SDS/PAGE densitometry; triplicate; least‐squares fit
Conditions: both partners purified

T1 sequence (P02453 162-1217, chain 1 of 2): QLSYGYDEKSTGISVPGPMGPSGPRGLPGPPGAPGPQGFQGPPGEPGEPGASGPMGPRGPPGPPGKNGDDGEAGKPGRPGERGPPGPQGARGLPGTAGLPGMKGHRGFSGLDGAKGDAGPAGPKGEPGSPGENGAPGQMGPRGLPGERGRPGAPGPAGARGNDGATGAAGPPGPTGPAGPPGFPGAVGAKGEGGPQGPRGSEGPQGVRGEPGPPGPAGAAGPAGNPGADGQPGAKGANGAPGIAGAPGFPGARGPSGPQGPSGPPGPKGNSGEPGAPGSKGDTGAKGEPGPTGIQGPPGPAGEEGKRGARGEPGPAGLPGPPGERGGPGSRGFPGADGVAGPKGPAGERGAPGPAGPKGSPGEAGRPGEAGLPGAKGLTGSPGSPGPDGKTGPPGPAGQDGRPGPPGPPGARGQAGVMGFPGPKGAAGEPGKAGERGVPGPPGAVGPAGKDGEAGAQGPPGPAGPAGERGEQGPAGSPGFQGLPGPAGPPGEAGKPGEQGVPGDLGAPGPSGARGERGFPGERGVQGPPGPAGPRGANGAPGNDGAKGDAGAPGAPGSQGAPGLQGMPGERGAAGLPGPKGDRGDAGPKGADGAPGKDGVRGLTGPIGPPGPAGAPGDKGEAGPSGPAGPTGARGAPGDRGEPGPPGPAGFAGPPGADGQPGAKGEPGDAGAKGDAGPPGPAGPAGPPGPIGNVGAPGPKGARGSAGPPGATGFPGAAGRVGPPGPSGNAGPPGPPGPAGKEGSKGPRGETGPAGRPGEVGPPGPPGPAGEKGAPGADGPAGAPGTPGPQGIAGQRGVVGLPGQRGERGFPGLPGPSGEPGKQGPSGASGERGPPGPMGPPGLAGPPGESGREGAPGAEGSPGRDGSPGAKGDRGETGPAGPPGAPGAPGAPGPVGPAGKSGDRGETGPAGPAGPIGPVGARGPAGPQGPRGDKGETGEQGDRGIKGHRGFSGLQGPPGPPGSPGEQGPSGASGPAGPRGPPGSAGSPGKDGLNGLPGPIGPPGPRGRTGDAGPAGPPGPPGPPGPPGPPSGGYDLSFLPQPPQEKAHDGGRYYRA
T1 sequence (P02465 80-1117, chain 2 of 2): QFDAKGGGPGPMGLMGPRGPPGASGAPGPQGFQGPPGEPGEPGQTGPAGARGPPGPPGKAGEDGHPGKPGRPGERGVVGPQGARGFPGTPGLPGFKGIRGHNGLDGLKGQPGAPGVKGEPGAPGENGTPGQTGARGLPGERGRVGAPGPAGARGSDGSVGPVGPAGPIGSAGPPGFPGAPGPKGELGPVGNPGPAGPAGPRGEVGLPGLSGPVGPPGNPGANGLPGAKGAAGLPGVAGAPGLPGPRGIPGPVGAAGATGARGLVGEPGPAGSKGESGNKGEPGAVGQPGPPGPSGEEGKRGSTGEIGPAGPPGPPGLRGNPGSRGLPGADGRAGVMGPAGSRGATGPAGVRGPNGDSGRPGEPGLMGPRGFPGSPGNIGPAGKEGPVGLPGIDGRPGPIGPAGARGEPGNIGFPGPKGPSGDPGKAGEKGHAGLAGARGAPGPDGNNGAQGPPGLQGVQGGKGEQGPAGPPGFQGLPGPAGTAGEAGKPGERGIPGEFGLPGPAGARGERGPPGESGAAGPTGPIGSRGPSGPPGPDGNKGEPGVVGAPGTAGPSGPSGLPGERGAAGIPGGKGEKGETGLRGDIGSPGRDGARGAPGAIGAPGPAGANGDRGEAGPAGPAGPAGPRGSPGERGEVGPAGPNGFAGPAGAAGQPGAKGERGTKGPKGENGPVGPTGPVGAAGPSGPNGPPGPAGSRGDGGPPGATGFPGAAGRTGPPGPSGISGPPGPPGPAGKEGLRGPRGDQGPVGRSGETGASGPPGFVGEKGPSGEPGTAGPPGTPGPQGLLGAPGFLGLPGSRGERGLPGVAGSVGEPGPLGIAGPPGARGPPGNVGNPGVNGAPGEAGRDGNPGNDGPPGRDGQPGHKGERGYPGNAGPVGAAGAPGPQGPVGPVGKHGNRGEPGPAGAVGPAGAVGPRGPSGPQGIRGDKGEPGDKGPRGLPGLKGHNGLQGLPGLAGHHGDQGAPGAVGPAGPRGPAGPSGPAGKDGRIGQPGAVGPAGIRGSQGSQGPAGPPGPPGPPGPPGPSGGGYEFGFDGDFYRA

B1: recombinant C‐terminal segment (aa 616–767) including the PPC domain of Grimontia hollisae strain 1706B collagenase (domain or fragment)
chain: TEALAKGDSGAGNGEGTGSGNEGGGESGGNTGLPENCAVLPKISDGRLALDEAACLADTASASDVLWFSIPAVSEYQTIAITAGNGTGDLTLEYSNLNWPDGTNVQASSANMGNSECIILEHQANYWGYLKVSGSFENAALLVEAGSNQCRQ
notes: 15.4 kDa; The forward primer carries the enterokinase site (DDDDK) just before residue T616, so the cleaved His-tag was probably N-terminal (surmised); QTOF-MS mass 15 445.01 Da fits two intrachain disulfide bonds; also called G. hollisae
B1 showed a Kd of 27.2 µM.
